Assays:
[1] = target: T1, PSMGFR peptide (Primary Sequence of the MUC1 Growth Factor Receptor); experiment: binding assay on peptide
T1 construct: 45-residue peptide from the extracellular domain of cleaved MUC1 (MUC1*); also called MUC1* peptide; MUC1* extra cellular domain peptide
T1 peptide: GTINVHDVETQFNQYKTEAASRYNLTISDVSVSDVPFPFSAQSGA

[2] = target: T1, PSMGFR peptide (Primary Sequence of the …); experiment: binding to peptide; assay not described
[3] = target: T2, dimeric NME1 (human, UniProt P15531 1-152, limits assumed); experiment: binding assay on peptide
T2 construct: The construct used is not described; also called NM23-H1 dimers; dimeric NM23-H1

[4] = target: T3, NME7-AB (UniProt Q9Y5B8 92-376); experiment: binding assay on peptide
T3 sequence (looked up): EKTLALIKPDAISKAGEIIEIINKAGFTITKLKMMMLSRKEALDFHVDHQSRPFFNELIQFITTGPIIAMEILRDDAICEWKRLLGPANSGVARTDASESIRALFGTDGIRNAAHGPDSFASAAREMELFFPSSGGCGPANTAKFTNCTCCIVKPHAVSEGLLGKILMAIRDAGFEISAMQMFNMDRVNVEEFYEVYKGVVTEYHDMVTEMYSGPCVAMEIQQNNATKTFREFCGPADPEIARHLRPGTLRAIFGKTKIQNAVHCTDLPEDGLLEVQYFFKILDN

T2 sequence (P15531 whole entry): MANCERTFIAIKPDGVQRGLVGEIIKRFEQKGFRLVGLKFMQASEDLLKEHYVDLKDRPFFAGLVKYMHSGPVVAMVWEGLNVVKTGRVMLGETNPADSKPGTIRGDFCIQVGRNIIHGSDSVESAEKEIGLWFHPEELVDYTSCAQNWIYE

B1: mouse monoclonal antibody MN-C2 (antibody, V domains shown)
VH: EVQLEESGGGLVKPGGSLKLSCAASGFTFSGYAMSWVRQTPEKRLEWVATISSGGTYIYYPDSVKGRFTISRDNAKNTLYLQMSSLRSEDTAMYYCARLGGDNYYEYFDVWGAGTTVTVSS
VL: DIVITQSTASLGVSLGQRATISCRASKSVSTSGYSYMHWYQQRPGQPPKLLIYLASNLESGVPARFSGSGSGTDFTLNIHPVEEEDAATYYCQHSRELPFTFGGGTKLEIKR
notes: The printed entries run a few residues into the constant region; also called Min-C2
[1]
  binding result: binds

B2: mouse monoclonal antibody MN-E6 (antibody, V domains shown)
VH: EVKVVESGGDLVKPGGSLKLSCVVSGFTFSRYGMSWVRQTPGKRLEWVATISGGGTYIYYPDSVKGRFTISRDNAKNTLYLQMSSLKSEDTAMYHCTRDNYGRNYDYGMDYWGQGTSVTVSS
VL: QIVLTQSPAIMSASPGEEVTLTCSATSSVSYIHWFQQRPGTSPKLWIYSTSNLASGVPVRFSGSGYGTSYSLTISRMEAEDAATYYCQQRSSSPFTFGSGTKLEIK
notes: also called Min-E6
[1]
  binding result: binds

B3: mouse monoclonal antibody MN-C3 (antibody, V domains shown)
VH: QVQLQQSGPELVRPGVSVKISCKGSGYRFTDYAMNWVKQSHAKSLEWIGVISTFSGNTNFNQKFKGKATMTVDKSSSTAYMELARLTSEDSAMYYCARSDYYGPYFDYWGQGTTLTVSS
VL: DVLMTQTPLSLPVSLGDQASISCRSSQTIVHSNGNTYLEWYLQKPGQSPKLLIYKVSNRFSGVPDRFSGSGSGTDFTLKINRVEAEDLGVYYCFQGSHVPFTFGSGTKLEIK
notes: also called Min-C3
[2]
  binding result: binds

## GTINVHDVETQFNQYKTEAASRYNLTISDVSVSDV (also called C-10 PSMGFR) [PSMGFR peptide lacking the 10 C-terminal amino acids]
[3]
  binding result: no binding
[4]
  binding result: no binding

— US20200405832A1 (MINERVA BIOTECHNOLOGIES, published 2020)
